# Measurements from US20220396635A1 (UNIVERSIT T STUTTGART, published 2022).
# Molecular target: T1, FAP (UniProt Q12884 1-760, limits assumed)
# T1 construct: whole, on cells; also called FAP on HT1080-FAP cells
# Experiment: flow cytometry, serial dilution on HT1080-FAP cells (FAP-expressing), PE anti-human Fc detection
# Procedure: Binding of trivalent, bispecific fusion proteins to FAP-expressing (HT1080-FAP) cell lines was analyzed by flow cytometry. 2×10⁵ cells/well were incubated with a serial dilution of trivalent, bispecific antibodies for 1 h at 4° C. followed by detection using a PE-conjugated anti-human Fc antibody (Jackson ImmunoResearch Laboratories Inc).
row,EC50 [nM],Binder
1,0.4,"scDb/Fab-Fc (2-1)+1, trivalent bispecific anti-FAPxanti-CD3 (bispecific antibody, human IgG1, kappa, also called scDbCD3xFAP-Fc(hole)Δab + VHFAP-CH1-Fc(knob)Δab + VLFAP-CLκ) QVQLVQSGAEVKKPGSSVKVSCKASGGTFSGYTMNWVRQAPGQGLEWMGLINPYKGVSTYNGKFKDRVTITADKSTSTAYMELSSLRSEDTAVYYCARSGYYGDSDWYFDVWGQGTLVTVSSGGGGSDIQMTQSPSSLSASVGDRVTITCRASKSVSTSAYSYMHWYQQKPGKAPKLLIYLASNLESGVPSRFSGSGSGTDFTLTISSLQPEDFATYYCQHSRELPYTFGQGTKLEIKRGGGGSGGGGSQVQLVQSGAEVKKPGASVKVSCKASGYTFTENIIHWVRQAPGQGLEWMGWFHPGSGSIKYNEKFKDRVTMTADTSTSTVYMELSSLRSEDTAVYYCARHGGTGRGAMDYWGQGTLVTVGGGGSDIQMTQSPSSLSASVGDRVTITCRASQDIRNYLNWYQQKPGKAPKLLIYYTSRLHSGVPSRFSGSGSGTDFTFTISSLQPEDIATYYCQQGNTLPWTFGQGTKLEIKRAAADKTHTCPPCPAPPVAGPSVFLFPPKPKDTLMISRTPEVTCVVVDVSHEDPEVKFNWYVDGVEVHNAKTKPREEQYNSTYRVVSVLTVLHQDWLNGKEYKCKVSNKGLPSSIEKTISKAKGQPREPQVCTLPPSRDELTKNQVSLSCAVKGFYPSDIAVEWESNGQPENNYKTTPPVLDSDGSFFLVSKLTVDKSRWQQGNVFSCSVMHEALHNHYTQKSLSLSPGK heavy: QVQLVQSGAEVKKPGASVKVSCKASGYTFTENIIHWVRQAPGQGLEWMGWFHPGSGSIKYNEKFKDRVTMTADTSTSTVYMELSSLRSEDTAVYYCARHGGTGRGAMDYWGQGTLVTVSSASTKGPSVFPLAPSSKSTSGGTAALGCLVKDYFPEPVTVSWNSGALTSGVHTFPAVLQSSGLYSLSSVVTVPSSSLGTQTYICNVNHKPSNTKVDKKVEPKSCDKTHTCPPCPAPPVAGPSVFLFPPKPKDTLMISRTPEVTCVVVDVSHEDPEVKFNWYVDGVEVHNAKTKPREEQYNSTYRVVSVLTVLHQDWLNGKEYKCKVSNKGLPSSIEKTISKAKGQPREPQVYTLPPCRDELTKNQVSLWCLVKGFYPSDIAVEWESNGQPENNYKTTPPVLDSDGSFFLYSKLTVDKSRWQQGNVFSCSVMHEALHNHYTQKSLSLSPGK light: DIQMTQSPSSLSASVGDRVTITCRASKSVSTSAYSYMHWYQQKPGKAPKLLIYLASNLESGVPSRFSGSGSGTDFTLTISSLQPEDFATYYCQHSRELPYTFGQGTKLEIKRRTVAAPSVFIFPPSDEQLKSGTASVVCLLNNFYPREAKVQWKVDNALQSGNSQESVTEQDSKDSTYSLSSTLTLSKADYEKHKVYACEVTHQGLSSPVTKSFNRGEC"
2,0.6,"scDb/scFv-Fc (1-2)+1, trivalent bispecific anti-FAPxanti-CD3 (bispecific antibody, The FAP site is hu36; also called scDbFAPxCD3-Fc(hole)Δab + scFvFAP-Fc(knob)Δab) chain 1: QVQLVQSGAEVKKPGASVKVSCKASGYTFTENIIHWVRQAPGQGLEWMGWFHPGSGSIKYNEKFKDRVTMTADTSTSTVYMELSSLRSEDTAVYYCARHGGTGRGAMDYWGQGTLVTVSSGGGGSDIQMTQSPSSLSASVGDRVTITCRASQDIRNYLNWYQQKPGKAPKLLIYYTSRLHSGVPSRFSGSGSGTDFTFTISSLQPEDIATYYCQQGNTLPWTFGQGTKLEIKRGGGGSGGGGSGGGGSQVQLVQSGAEVKKPGSSVKVSCKASGGTFSGYTMNWVRQAPGQGLEWMGLINPYKGVSTYNGKFKDRVTITADKSTSTAYMELSSLRSEDTAVYYCARSGYYGDSDWYFDVWGQGTLVTVSSGGGGSDIQMTQSPSSLSASVGDRVTITCRASKSVSTSAYSYMHWYQQKPGKAPKLLIYLASNLESGVPSRFSGSGSGTDFTLTISSLQPEDFATYYCQHSRELPYTFGQGTKLEIKRAAADKTHTCPPCPAPPVAGPSVFLFPPKPKDTLMISRTPEVTCVVVDVSHEDPEVKFNWYVDGVEVHNAKTKPREEQYNSTYRVVSVLTVLHQDWLNGKEYKCKVSNKGLPSSIEKTISKAKGQPREPQVCTLPPSRDELTKNQVSLSCAVKGFYPSDIAVEWESNGQPENNYKTTPPVLDSDGSFFLVSKLTVDKSRWQQGNVFSCSVMHEALHNHYTQKSLSLSPGK chain 2: QVQLVQSGAEVKKPGASVKVSCKASGYTFTENIIHWVRQAPGQGLEWMGWFHPGSGSIKYNEKFKDRVTMTADTSTSTVYMELSSLRSEDTAVYYCARHGGTGRGAMDYWGQGTLVTVSSGGGGSGGGGSGGGGSDIQMTQSPSSLSASVGDRVTITCRASKSVSTSAYSYMHWYQQKPGKAPKLLIYLASNLESGVPSRFSGSGSGTDFTLTISSLQPEDFATYYCQHSRELPYTFGQGTKLEIKRAAADKTHTCPPCPAPPVAGPSVFLFPPKPKDTLMISRTPEVTCVVVDVSHEDPEVKFNWYVDGVEVHNAKTKPREEQYNSTYRVVSVLTVLHQDWLNGKEYKCKVSNKGLPSSIEKTISKAKGQPREPQVYTLPPCRDELTKNQVSLWCLVKGFYPSDIAVEWESNGQPENNYKTTPPVLDSDGSFFLYSKLTVDKSRWQQGNVFSCSVMHEALHNHYTQKSLSLSPGK"
3,0.5,"scDb/Fab-Fc (1-2)+1, trivalent bispecific anti-FAPxanti-CD3 (bispecific antibody, human IgG1, kappa, also called scDbFAPxCD3-Fc(hole)Δab + VHFAP-CH1-Fc(knob)Δab + VLFAP-CLκ) QVQLVQSGAEVKKPGASVKVSCKASGYTFTENIIHWVRQAPGQGLEWMGWFHPGSGSIKYNEKFKDRVTMTADTSTSTVYMELSSLRSEDTAVYYCARHGGTGRGAMDYWGQGTLVTVSSGGGGSDIQMTQSPSSLSASVGDRVTITCRASQDIRNYLNWYQQKPGKAPKLLIYYTSRLHSGVPSRFSGSGSGTDFTFTISSLQPEDIATYYCQQGNTLPWTFGQGTKLEIKRGGGGSGGGGSGGGGSQVQLVQSGAEVKKPGSSVKVSCKASGGTFSGYTMNWVRQAPGQGLEWMGLINPYKGVSTYNGKFKDRVTITADKSTSTAYMELSSLRSEDTAVYYCARSGYYGDSDWYFDVWGQGTLVTVSSGGGGSDIQMTQSPSSLSASVGDRVTITCRASKSVSTSAYSYMHWYQQKPGKAPKLLIYLASNLESGVPSRFSGSGSGTDFTLTISSLQPEDFATYYCQHSRELPYTFGQGTKLEIKRAAADKTHTCPPCPAPPVAGPSVFLFPPKPKDTLMISRTPEVTCVVVDVSHEDPEVKFNWYVDGVEVHNAKTKPREEQYNSTYRVVSVLTVLHQDWLNGKEYKCKVSNKGLPSSIEKTISKAKGQPREPQVCTLPPSRDELTKNQVSLSCAVKGFYPSDIAVEWESNGQPENNYKTTPPVLDSDGSFFLVSKLTVDKSRWQQGNVFSCSVMHEALHNHYTQKSLSLSPGK heavy: QVQLVQSGAEVKKPGASVKVSCKASGYTFTENIIHWVRQAPGQGLEWMGWFHPGSGSIKYNEKFKDRVTMTADTSTSTVYMELSSLRSEDTAVYYCARHGGTGRGAMDYWGQGTLVTVSSASTKGPSVFPLAPSSKSTSGGTAALGCLVKDYFPEPVTVSWNSGALTSGVHTFPAVLQSSGLYSLSSVVTVPSSSLGTQTYICNVNHKPSNTKVDKKVEPKSCDKTHTCPPCPAPPVAGPSVFLFPPKPKDTLMISRTPEVTCVVVDVSHEDPEVKFNWYVDGVEVHNAKTKPREEQYNSTYRVVSVLTVLHQDWLNGKEYKCKVSNKGLPSSIEKTISKAKGQPREPQVYTLPPCRDELTKNQVSLWCLVKGFYPSDIAVEWESNGQPENNYKTTPPVLDSDGSFFLYSKLTVDKSRWQQGNVFSCSVMHEALHNHYTQKSLSLSPGK light: DIQMTQSPSSLSASVGDRVTITCRASKSVSTSAYSYMHWYQQKPGKAPKLLIYLASNLESGVPSRFSGSGSGTDFTLTISSLQPEDFATYYCQHSRELPYTFGQGTKLEIKRRTVAAPSVFIFPPSDEQLKSGTASVVCLLNNFYPREAKVQWKVDNALQSGNSQESVTEQDSKDSTYSLSSTLTLSKADYEKHKVYACEVTHQGLSSPVTKSFNRGEC"
4,0.3,"scDb/scFv-Fc (2-1)+1, trivalent bispecific anti-FAPxanti-CD3 (bispecific antibody, also called scDbCD3xFAP-Fc(hole)Δab + scFvFAP-Fc(knob)Δab) chain 1: QVQLVQSGAEVKKPGSSVKVSCKASGGTFSGYTMNWVRQAPGQGLEWMGLINPYKGVSTYNGKFKDRVTITADKSTSTAYMELSSLRSEDTAVYYCARSGYYGDSDWYFDVWGQGTLVTVSSGGGGSDIQMTQSPSSLSASVGDRVTITCRASKSVSTSAYSYMHWYQQKPGKAPKLLIYLASNLESGVPSRFSGSGSGTDFTLTISSLQPEDFATYYCQHSRELPYTFGQGTKLEIKRGGGGSGGGGSQVQLVQSGAEVKKPGASVKVSCKASGYTFTENIIHWVRQAPGQGLEWMGWFHPGSGSIKYNEKFKDRVTMTADTSTSTVYMELSSLRSEDTAVYYCARHGGTGRGAMDYWGQGTLVTVGGGGSDIQMTQSPSSLSASVGDRVTITCRASQDIRNYLNWYQQKPGKAPKLLIYYTSRLHSGVPSRFSGSGSGTDFTFTISSLQPEDIATYYCQQGNTLPWTFGQGTKLEIKRAAADKTHTCPPCPAPPVAGPSVFLFPPKPKDTLMISRTPEVTCVVVDVSHEDPEVKFNWYVDGVEVHNAKTKPREEQYNSTYRVVSVLTVLHQDWLNGKEYKCKVSNKGLPSSIEKTISKAKGQPREPQVCTLPPSRDELTKNQVSLSCAVKGFYPSDIAVEWESNGQPENNYKTTPPVLDSDGSFFLVSKLTVDKSRWQQGNVFSCSVMHEALHNHYTQKSLSLSPGK chain 2: QVQLVQSGAEVKKPGASVKVSCKASGYTFTENIIHWVRQAPGQGLEWMGWFHPGSGSIKYNEKFKDRVTMTADTSTSTVYMELSSLRSEDTAVYYCARHGGTGRGAMDYWGQGTLVTVSSGGGGSGGGGSGGGGSDIQMTQSPSSLSASVGDRVTITCRASKSVSTSAYSYMHWYQQKPGKAPKLLIYLASNLESGVPSRFSGSGSGTDFTLTISSLQPEDFATYYCQHSRELPYTFGQGTKLEIKRAAADKTHTCPPCPAPPVAGPSVFLFPPKPKDTLMISRTPEVTCVVVDVSHEDPEVKFNWYVDGVEVHNAKTKPREEQYNSTYRVVSVLTVLHQDWLNGKEYKCKVSNKGLPSSIEKTISKAKGQPREPQVYTLPPCRDELTKNQVSLWCLVKGFYPSDIAVEWESNGQPENNYKTTPPVLDSDGSFFLYSKLTVDKSRWQQGNVFSCSVMHEALHNHYTQKSLSLSPGK"
